*1 amine or outer side, *2 acyl side, *3 side chain or, on linkers, in order; H or OH if unused. Where no end group is shown, it is not given here. [ ]: non-standard residue; d: D form. ReO = oxorhenium(V), one metal core binding both hemi-chelators, from trichlorooxobis(triphenylphosphine)rhenium(V); GlyN3 = N-(3-aminopropyl)glycine amide, Cys acylated on the omega-amine, NC(=O)CN(CCCN[*:3])[*:1]; GlyN6 = Gly building unit carrying an omega-amine (Cys attached there); N(6-aminohexyl)Gly = O=C(CN(CCCCCCN[*:3])[*:1])[*:2]; N(2-Aminoethyl)Gly = O=C(CN(CCN[*:3])[*:1])[*:2]

The assay concerns the target T1, human cloned SST-R2 (human, UniProt P30874 1-369).
T1 construct: whole, on cells; Assayed as membrane preparations of CHO cells expressing the cloned receptor, not as intact cells; also called hSST-R2; human SST-R2
Description: inhibition of 125I-Tyr11-SRIF-14 binding to membranes of CHO cells expressing cloned human SST-R2. As to the method: The SST analogs were tested for their potency in inhibition of the binding of ¹²⁵I-Tyr¹¹-SRIF (based on the method described by Raynor et. al., Molecular Pharmnacology 43: 838, 1993) to membrane preparations expressing the transmembranal SST receptors (SST-R1, 2, 3, 4 or 5). The receptor preparations used for these tests were either from the cloned human receptors selectively and stably expressed in Chinese Hamster Ovary (CHO) cells or from cell lines naturally expressing the SST-R5. Typically, cell membranes were homogenized in Tris buffer in the presence of protease inhibitors and incubated for 30-40 minutes with ¹²⁵I-Tyr¹¹-SRIF with different concentrations of the tested sample. The binding reactions were filtered, the filters were washed and the bound radioactivity was counted in β counter after addition of scintillation colution. Non specific binding was defined as the radioactivity remaining bound in the presence of 1 μM unlabeled SRIF-14.

T1 sequence (P30874 whole entry): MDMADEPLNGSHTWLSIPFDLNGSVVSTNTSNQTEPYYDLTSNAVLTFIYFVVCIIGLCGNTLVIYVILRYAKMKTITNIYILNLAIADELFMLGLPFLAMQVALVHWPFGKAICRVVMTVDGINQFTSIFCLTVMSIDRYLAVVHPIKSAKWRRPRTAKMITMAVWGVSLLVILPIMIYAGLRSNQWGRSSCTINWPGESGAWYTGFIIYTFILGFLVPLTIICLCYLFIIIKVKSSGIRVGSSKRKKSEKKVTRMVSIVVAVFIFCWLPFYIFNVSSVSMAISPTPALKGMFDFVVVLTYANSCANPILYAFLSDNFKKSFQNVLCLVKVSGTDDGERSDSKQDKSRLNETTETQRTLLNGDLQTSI

B1: ReO-GF-1 (peptide)
peptide: CXFWWKTFG
modifications: L-Cys at 1; GABA at 2 (written X); D-Trp at 5; GlyN6 building unit at 9 with L-Cys on its omega-amine; C-terminal amide; ReO (oxorhenium(V)) chelated by the two Cys closes the ring
Molecule B1 showed a half-maximal inhibitory concentration (IC50) of 16 nM. In other words, the double-digit nanomolar range.

B2: ReO-GF-41 (peptide)
peptide: CGFW[dW]KTF[N(2-Aminoethyl)Gly](Cys)-NH2
modifications: bridge (positions not given here) via ReO; not fully specified (bridges); also: N2S2 oxorhenium(V) chelate via the two Cys
B2 had a half-maximal inhibitory concentration (IC50) greater than 10 nM.

B3: ReO-GF-13 (peptide)
peptide: CFW[dW]KTF[GlyN6](Cys)-NH2
modifications: bridge (positions not given here) via ReO; not fully specified (bridges); also: oxorhenium(V) metal chelate (N2S2)
B3 showed an IC50 of roughly 10 nM.

B4: ReO-GF-37 (peptide)
peptide: CXFWWKTFG
modifications: L-Cys at 1; beta-Ala at 2 (written X); D-Trp at 5; GlyN2 building unit at 9 with L-Cys on its omega-amine; C-terminal amide; ReO (oxorhenium(V)) chelated by the two Cys closes the ring
notes: also called ReO-LCys*-βAla-Phe-Trp-DTrp-Lys-Thr-Phe-GlyN2(LCys*)-NH2
The molecule B4 had an IC50 of 3 nM.

B5: ReO-GF-39 (peptide)
peptide: CXFWWKTFG
modifications: D-Cys at 1; beta-Ala at 2 (written X); D-Trp at 5; GlyN2 building unit at 9 with L-Cys on its omega-amine; C-terminal amide; ReO (oxorhenium(V)) chelated by the two Cys closes the ring
B5 gave a 50% inhibitory concentration (IC50) of 10 nM.

B6: ReO-GF-48 (peptide)
peptide: CFWWKTFG
modifications: not fully specified; D-Cys at 1; D-Trp at 4; GlyN2 building unit at 8 with D-Cys on its omega-amine; C-terminal amide; ReO (oxorhenium(V)) chelated by the two Cys closes the ring
As to B6, the IC50 is greater than 10 nM.

B7: ReO-GF-20 (peptide)
peptide: CXFWWKTFG
modifications: not fully specified; D-Cys at 1; GABA at 2 (written X); D-Trp at 5; GlyN3 building unit at 9 with D-Cys on its omega-amine; C-terminal amide; ReO (oxorhenium(V)) chelated by the two Cys closes the ring
As to B7, the IC50 was determined as 10 nM.

B8: ReO-GF-9 (peptide)
peptide: CGFW[dW]KTF[N(6-aminohexyl)Gly](Cys)-NH2
modifications: bridge (positions not given here); not fully specified (bridges); also: N2S2 oxorhenium(V) chelate via the two Cys
B8 gave an IC50 of roughly 10 nM.

B9: ReO-GF-36 (peptide)
peptide: CXFWWKTFG
modifications: not fully specified; D-Cys at 1; GABA at 2 (written X); D-Trp at 5; GlyN2 building unit at 9 with D-Cys on its omega-amine; C-terminal amide; ReO (oxorhenium(V)) chelated by the two Cys closes the ring
Take B9: the IC50 was greater than 10 nM.

B10: ReO-GF-14 (peptide)
peptide: CFWWKTFG
modifications: not fully specified; L-Cys at 1; D-Trp at 4; GlyN6 building unit at 8 with D-Cys on its omega-amine; C-terminal amide; ReO (oxorhenium(V)) chelated by the two Cys closes the ring
notes: also called ReO-LCys*-Phe-Trp-DTrp-Lys-Thr-Phe-GlyN6(DCys*)-NH2
Molecule B10 had an IC50 of 7 nM.

B11: ReO-GF-16 (peptide)
peptide: CFWWKTFG
modifications: not fully specified; D-Cys at 1; D-Trp at 4; GlyN6 building unit at 8 with D-Cys on its omega-amine; C-terminal amide; ReO (oxorhenium(V)) chelated by the two Cys closes the ring
With B11, the 50% inhibitory concentration (IC50) was 18 nM.

B12: ReO-GF-8 (peptide)
peptide: CXFWWKTFG
modifications: not fully specified; D-Cys at 1; beta-Ala at 2 (written X); D-Trp at 5; GlyN6 building unit at 9 with D-Cys on its omega-amine; C-terminal amide; ReO (oxorhenium(V)) chelated by the two Cys closes the ring
The molecule B12 displayed an IC50 of 5 nM.

B13: ReO-GF-12 (peptide)
peptide: CGFWWKTFG
modifications: not fully specified; D-Cys at 1; D-Trp at 5; GlyN6 building unit at 9 with D-Cys on its omega-amine; C-terminal amide; ReO (oxorhenium(V)) chelated by the two Cys closes the ring
In the case of B13, the half-inhibitory concentration (IC50) came out at 9 nM. Compared with the last molecule, the IC50 is about 1.8-fold higher.

B14: ReO-GF-45 (peptide)
peptide: CFW[dW]KTF[N(2-Aminoethyl)Gly](Cys)-NH2
modifications: bridge (positions not given here) via ReO; not fully specified (bridges); also: N2S2 oxorhenium(V) chelate via the two Cys
In the case of B14, the IC50 is greater than 10 nM.

B15: ReO-GF-40 (peptide)
peptide: CXFWWKTFG
modifications: not fully specified; D-Cys at 1; beta-Ala at 2 (written X); D-Trp at 5; GlyN2 building unit at 9 with D-Cys on its omega-amine; C-terminal amide; ReO (oxorhenium(V)) chelated by the two Cys closes the ring
As for B15, the IC50 was greater than 10 nM.

B16: ReO-GF-30 (peptide)
peptide: CFW[dW]KTF[GlyN3](dC)-NH2
modifications: bridge (positions not given here) via ReO; not fully specified (bridges); also: N2S2 oxorhenium(V) chelate via the two Cys
B16 showed an IC50 of 13 nM.

B17: ReO-GF-43 (peptide)
peptide: CGFWWKTFG
modifications: not fully specified; D-Cys at 1; D-Trp at 5; GlyN2 building unit at 9 with L-Cys on its omega-amine; C-terminal amide; ReO (oxorhenium(V)) chelated by the two Cys closes the ring
The molecule B17 registered an IC50 greater than 10 nM.

B18: ReO-GF-47 (peptide)
peptide: CFWWKTFG
modifications: not fully specified; D-Cys at 1; D-Trp at 4; GlyN2 building unit at 8 with L-Cys on its omega-amine; C-terminal amide; ReO (oxorhenium(V)) chelated by the two Cys closes the ring
Consider B18, for which the half-maximal inhibitory concentration (IC50) is greater than 10 nM.

B19: ReO-GF-11 (peptide)
peptide: CGFWWKTFG
modifications: not fully specified; D-Cys at 1; D-Trp at 5; GlyN6 building unit at 9 with L-Cys on its omega-amine; C-terminal amide; ReO (oxorhenium(V)) chelated by the two Cys closes the ring
notes: also called ReO-DCys*-Gly-Phe-Trp-DTrp-Lys-Thr-Phe-GlyN6(LCys*)-NH2
For B19, the concentration for half-maximal inhibition (IC50) came to 4 nM. In other words, the single-digit nanomolar range.

B20: ReO-GF-4 (peptide)
peptide: CXFWWKTFG
modifications: not fully specified; D-Cys at 1; GABA at 2 (written X); D-Trp at 5; GlyN6 building unit at 9 with D-Cys on its omega-amine; C-terminal amide; ReO (oxorhenium(V)) chelated by the two Cys closes the ring
On to B20, for which the half-inhibitory concentration (IC50) is 12 nM.

B21: ReO-GF-35 (peptide)
peptide: CXFWWKTFG
modifications: D-Cys at 1; GABA at 2 (written X); D-Trp at 5; GlyN2 building unit at 9 with L-Cys on its omega-amine; C-terminal amide; ReO (oxorhenium(V)) chelated by the two Cys closes the ring
In turn, B21 gave an IC50 greater than 10 nM.

B22: ReO-GF-32 (peptide)
peptide: CFWWKTFG
modifications: not fully specified; D-Cys at 1; D-Trp at 4; GlyN3 building unit at 8 with D-Cys on its omega-amine; C-terminal amide; ReO (oxorhenium(V)) chelated by the two Cys closes the ring
As to B22, the half-inhibitory concentration (IC50) was found to be 14 nM. This counts as double-digit nanomolar.

B23: ReO-GF-18 (peptide)
peptide: CXFWWKTFG
modifications: L-Cys at 1; GABA at 2 (written X); D-Trp at 5; GlyN3 building unit at 9 with D-Cys on its omega-amine; C-terminal amide; ReO (oxorhenium(V)) chelated by the two Cys closes the ring
The molecule B23 returned an IC50 of roughly 10 nM.

B24: ReO-GF-10 (peptide)
peptide: CGFWWKTFG
modifications: not fully specified; L-Cys at 1; D-Trp at 5; GlyN6 building unit at 9 with D-Cys on its omega-amine; C-terminal amide; ReO (oxorhenium(V)) chelated by the two Cys closes the ring
notes: also called ReO-LCys*-Gly-Phe-Trp-DTrp-Lys-Thr-Phe-GlyN6(DCys*)-NH2
Regarding B24, the 50% inhibitory concentration (IC50) was 3 nM. This counts as single-digit nanomolar.

B25: ReO-GF-23 (peptide)
peptide: CXFWWKTFG
modifications: D-Cys at 1; beta-Ala at 2 (written X); D-Trp at 5; GlyN3 building unit at 9 with L-Cys on its omega-amine; C-terminal amide; ReO (oxorhenium(V)) chelated by the two Cys closes the ring
Regarding B25, the IC50 is roughly 10 nM.
